Columns and labels:
[1] = molecular target: Integrin beta-2/Integrin alpha-M recombinant protein complex (R and D 4047-AM) (UniProt P11215 17-1105); test: phage display selection on immobilised complex, clones evaluated by phage ELISA
Protocol: Briefly, Integrin-beta-2 recombinant protein complexes were immobilized on Maxisorp Immuno plates (ThermoFisher, #12-565-135) and used for positive binding selections with library phage pools that were first exposed to neutravidin coated wells to deplete nonspecific binders. After four rounds of binding selections, clonal phage was prepared and evaluated by phage ELISA and sequencing as described (PMID: 23219464).

[2] = molecular target: T1, recombinant Itgβ2 (Integrin beta-2 complex, alpha chain not stated for this result); test: BLI (Octet), antibody captured on AHQ biosensors, Integrin beta-2 complex in solution, 1:1 fit
T1 construct: Bought R&D Systems heterodimer; also called Integrin-beta 2 complexes
Protocol: (§1) To determine the binding kinetic parameters of the antibodies, BLI experiments were performed on an Octet HTX instrument (Sartorius) at 1000 rpm and 25° C. All proteins were diluted in an assay buffer (PBS, 1% BSA, 0.05% Tween 20). Test and control antibodies at a concentration of 2 μg/ml were first captured on AHQ biosensors to achieve the binding signals of 0.8-1.3 nm. Unoccupied Fc-binding sites on the antibody-coated sensors were subsequently quenched by 20 μg/mL of the Fc protein. After equilibration with the assay buffer, the biosensors were then dipped for 600 s into wells containing 5-fold serial dilution of Integrin-beta 2 complexes (association phase), followed by a transfer back into an assay buffer for additional 600 s (dissociation phase). Assay buffer alone served as a negative control. Binding response data were reference subtracted and were globally fitted with 1:1 binding model using ForteBio's Octet Systems software 9.0.

[3] = molecular target: T2, Integrin beta-2/Integrin alpha-L recombinant protein complex (R and D 3868-AV) (UniProt P20701 26-1090); test: BLI (Octet), antibody captured on AHQ biosensor, integrin complex in solution at 300/60/12 nM; the legend paragraph 15 names Itgal/Itgb2 as the antigen
T2 construct: Bought complex; also called Itgal/Itgβ2; ItgaL/Itgβ2
Protocol: as §1

B1: Antibody D3-7065 (antibody, V domains shown)
VH: EVQLVESGGGLVQPGGSLRLSCAASGFTISYYYMHWVRQAPGKGLEWVASISSSSGYTYYADSVKGRFTISADTSKNTAYLQMNSLRAEDTAVYYCARGAMDYWGQGTLVTVSS
VL: DIQMTQSPSSLSASVGDRVTITCRASQSVSSAVAWYQQKPGKAPKLLIYSASSLYSGVPSRFSGSRSGTDFTLTISSLQPEDFATYYCQQFSSGSWAPITFGQGTKVEIK
notes: It was purified on protein A and captured on AHQ biosensors for BLI
Q: Which results are given for B1?
A: binding result [1]: binds; Kd [2]: 1.56 nM; binding result [3]: binds

Source: patent publication US20260137781A1 (University of California, published 2026)
